Measurements taken from PMC5916898, “Global profiling of protein–DNA and protein–nucleosome binding affinities using quantitative mass spectrometry”.

Columns and labels:
Assay in all cases: pulldown; 150 mM NaCl, 50 mM Tris pH 8, 0.25% NP-40, 1 mM TCEP; 4 C, 2 h; 100 ug HeLa nuclear lysate
CTCF = biological target: T1, CTCF (Homo sapiens, UniProt P49711); conditions: protein: extract; label: 5' biotin (strand 1)
T1 sequence: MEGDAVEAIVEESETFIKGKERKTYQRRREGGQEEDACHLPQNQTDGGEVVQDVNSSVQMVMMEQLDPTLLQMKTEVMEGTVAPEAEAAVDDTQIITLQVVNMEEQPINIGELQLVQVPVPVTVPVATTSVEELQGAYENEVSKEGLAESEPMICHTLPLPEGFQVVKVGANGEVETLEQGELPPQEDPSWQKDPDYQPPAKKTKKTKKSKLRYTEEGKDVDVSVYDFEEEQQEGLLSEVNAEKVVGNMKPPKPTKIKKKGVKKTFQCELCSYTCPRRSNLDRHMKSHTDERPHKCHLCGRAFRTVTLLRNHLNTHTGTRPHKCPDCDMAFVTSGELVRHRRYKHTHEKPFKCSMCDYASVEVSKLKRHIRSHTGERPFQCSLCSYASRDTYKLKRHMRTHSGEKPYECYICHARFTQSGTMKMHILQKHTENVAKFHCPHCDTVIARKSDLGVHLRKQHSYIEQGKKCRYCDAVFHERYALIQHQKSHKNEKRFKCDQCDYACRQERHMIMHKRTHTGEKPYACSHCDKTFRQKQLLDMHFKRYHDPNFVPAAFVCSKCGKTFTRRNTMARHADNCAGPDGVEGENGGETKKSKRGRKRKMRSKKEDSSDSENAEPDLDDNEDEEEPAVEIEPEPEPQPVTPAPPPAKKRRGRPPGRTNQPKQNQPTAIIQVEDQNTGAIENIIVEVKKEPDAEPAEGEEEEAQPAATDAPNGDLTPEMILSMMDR

ZBTB10 = biological target: T2, ZBTB10 (Homo sapiens, UniProt Q96DT7); conditions: protein: extract; label: 5' biotin (strand 1)
T2 sequence: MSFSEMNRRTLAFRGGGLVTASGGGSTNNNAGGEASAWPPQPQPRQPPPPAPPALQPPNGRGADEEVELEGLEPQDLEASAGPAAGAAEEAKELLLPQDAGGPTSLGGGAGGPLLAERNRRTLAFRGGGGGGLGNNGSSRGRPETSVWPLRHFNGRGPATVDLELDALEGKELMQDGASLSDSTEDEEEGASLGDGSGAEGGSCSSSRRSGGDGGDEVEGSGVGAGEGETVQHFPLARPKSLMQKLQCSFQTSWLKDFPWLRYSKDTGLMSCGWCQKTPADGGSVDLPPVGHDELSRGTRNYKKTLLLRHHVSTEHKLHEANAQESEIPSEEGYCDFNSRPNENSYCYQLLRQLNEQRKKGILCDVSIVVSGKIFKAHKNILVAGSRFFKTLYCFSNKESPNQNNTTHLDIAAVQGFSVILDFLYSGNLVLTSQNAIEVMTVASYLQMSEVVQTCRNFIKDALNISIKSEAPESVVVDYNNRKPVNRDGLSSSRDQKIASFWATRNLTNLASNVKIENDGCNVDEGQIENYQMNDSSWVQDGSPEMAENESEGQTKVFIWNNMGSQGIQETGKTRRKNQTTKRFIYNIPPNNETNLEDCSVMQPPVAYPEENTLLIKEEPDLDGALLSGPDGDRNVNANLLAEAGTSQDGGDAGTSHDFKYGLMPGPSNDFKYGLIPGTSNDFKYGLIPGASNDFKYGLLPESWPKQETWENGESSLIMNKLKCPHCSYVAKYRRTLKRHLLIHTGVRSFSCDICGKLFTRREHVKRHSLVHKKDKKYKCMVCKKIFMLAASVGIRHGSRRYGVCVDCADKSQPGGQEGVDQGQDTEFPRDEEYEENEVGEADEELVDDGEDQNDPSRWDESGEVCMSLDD

SMAD4 = SMAD4 (Homo sapiens, UniProt Q13485); conditions: protein: extract; label: 5' biotin (strand 1)
HIVEP1 = HIVEP1 (Homo sapiens, UniProt P15822)
HOXC10 = HOXC10 (Homo sapiens, UniProt Q9NYD6); conditions: protein: extract; label: 5' biotin (strand 1)
ZBTB20 = biological target: T3, ZBTB20 (Homo sapiens, UniProt Q9HC78); conditions: protein: extract; label: 5' biotin (strand 1)
T3 sequence: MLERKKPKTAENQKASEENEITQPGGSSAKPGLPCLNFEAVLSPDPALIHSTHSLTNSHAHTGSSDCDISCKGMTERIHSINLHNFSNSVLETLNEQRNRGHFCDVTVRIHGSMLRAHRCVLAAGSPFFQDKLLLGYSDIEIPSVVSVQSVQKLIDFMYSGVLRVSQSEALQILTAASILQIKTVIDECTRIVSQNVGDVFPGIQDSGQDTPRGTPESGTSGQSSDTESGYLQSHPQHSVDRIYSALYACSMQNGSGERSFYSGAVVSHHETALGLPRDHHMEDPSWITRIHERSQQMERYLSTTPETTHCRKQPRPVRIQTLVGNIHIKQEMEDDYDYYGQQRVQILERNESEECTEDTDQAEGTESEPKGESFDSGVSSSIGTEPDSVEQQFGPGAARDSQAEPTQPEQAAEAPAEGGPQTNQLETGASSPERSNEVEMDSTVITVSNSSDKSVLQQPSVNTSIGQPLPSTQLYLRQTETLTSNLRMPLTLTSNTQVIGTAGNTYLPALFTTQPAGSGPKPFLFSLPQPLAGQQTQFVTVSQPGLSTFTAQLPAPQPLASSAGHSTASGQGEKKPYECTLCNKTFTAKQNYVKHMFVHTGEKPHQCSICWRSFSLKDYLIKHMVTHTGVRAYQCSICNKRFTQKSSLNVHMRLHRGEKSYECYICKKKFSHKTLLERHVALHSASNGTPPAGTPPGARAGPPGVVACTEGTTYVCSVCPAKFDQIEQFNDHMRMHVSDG

PAX6 = PAX6 (Homo sapiens, UniProt P26367); conditions: protein: extract; label: 5' biotin (strand 1)
Chain of PAX6 (P26367 whole entry): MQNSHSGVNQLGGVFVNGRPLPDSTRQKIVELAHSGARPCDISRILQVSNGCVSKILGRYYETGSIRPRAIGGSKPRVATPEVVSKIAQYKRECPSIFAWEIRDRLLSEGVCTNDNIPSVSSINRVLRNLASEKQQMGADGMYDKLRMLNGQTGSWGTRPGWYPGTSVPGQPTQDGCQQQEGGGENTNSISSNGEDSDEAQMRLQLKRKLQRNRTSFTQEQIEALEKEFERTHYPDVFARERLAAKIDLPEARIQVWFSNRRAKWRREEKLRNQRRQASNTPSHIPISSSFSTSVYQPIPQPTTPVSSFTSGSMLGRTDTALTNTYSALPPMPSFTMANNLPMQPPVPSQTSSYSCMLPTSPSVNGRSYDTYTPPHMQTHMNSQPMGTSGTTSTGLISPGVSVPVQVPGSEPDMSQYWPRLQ

Chain of SMAD4 (Q13485 whole entry): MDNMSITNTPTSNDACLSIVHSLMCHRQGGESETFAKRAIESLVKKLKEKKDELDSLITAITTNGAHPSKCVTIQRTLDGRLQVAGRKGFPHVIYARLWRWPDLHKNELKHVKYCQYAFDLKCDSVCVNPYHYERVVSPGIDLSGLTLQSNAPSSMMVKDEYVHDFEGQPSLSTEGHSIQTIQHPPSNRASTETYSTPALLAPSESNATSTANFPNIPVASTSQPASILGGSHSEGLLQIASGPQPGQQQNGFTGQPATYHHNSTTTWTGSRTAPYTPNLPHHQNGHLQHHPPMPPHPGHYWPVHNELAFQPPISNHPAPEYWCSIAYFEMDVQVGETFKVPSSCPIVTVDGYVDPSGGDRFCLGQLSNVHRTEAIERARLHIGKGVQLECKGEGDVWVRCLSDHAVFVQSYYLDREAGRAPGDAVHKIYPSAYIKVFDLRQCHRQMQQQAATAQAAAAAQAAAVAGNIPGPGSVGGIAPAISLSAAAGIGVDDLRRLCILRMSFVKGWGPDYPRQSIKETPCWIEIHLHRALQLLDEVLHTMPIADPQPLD
Chain of HOXC10 (Q9NYD6 whole entry): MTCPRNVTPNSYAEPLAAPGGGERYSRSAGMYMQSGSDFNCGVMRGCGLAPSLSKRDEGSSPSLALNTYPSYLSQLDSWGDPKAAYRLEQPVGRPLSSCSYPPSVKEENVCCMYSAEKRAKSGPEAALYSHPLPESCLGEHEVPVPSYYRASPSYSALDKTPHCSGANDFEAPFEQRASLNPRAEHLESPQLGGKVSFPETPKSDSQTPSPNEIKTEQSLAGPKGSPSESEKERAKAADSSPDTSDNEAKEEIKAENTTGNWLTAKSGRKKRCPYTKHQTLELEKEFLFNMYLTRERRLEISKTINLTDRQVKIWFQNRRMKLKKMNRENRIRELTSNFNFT

B1: CTCF (dsDNA)
DNA 1: TCAGAGTGGCGGCCAGCAGGGGGCGCCCTTGCCAGA
DNA 2: TCTGGCAAGGGCGCCCCCTGCTGGCCGCCACTCTGA
For B1, the “apparent K (half saturation)” value (CTCF) was 16.1 nM, the “apparent K (half saturation)” value (ZBTB10) was 40.4 nM and the “apparent K (half saturation)” value (SMAD4) was 153 nM. The “apparent K (half saturation)” value (HIVEP1) was 76.6 nM.

B2: TATA-box (dsDNA)
DNA 1: GCGGCGCTCTATATAAGTGGGCAGTG
DNA 2: CACTGCCCACTTATATAGAGCGCCGC
B2 was tested, and the “apparent K (half saturation)” value (HOXC10) was 87.8 nM and the “apparent K (half saturation)” value (ZBTB20) was 98.7 nM.

B3: TEAD (dsDNA)
DNA 1: TCGGGACCCAGGCCTGGAATGTTTCCACC
DNA 2: GGTGGAAACATTCCAGGCCTGGGTCCCGA
For B3, the “apparent K (half saturation)” value (PAX6) was 191 nM.
